According to patent publication US20230141177A1:

How the values were obtained:
[1] = molecular target: Aβ aggregates in the high molecular weight (HMW) fraction of pooled soluble human AD brain extract (>70 kDa to ~700 kDa) (human) (UniProt P05067); test: sandwich SPR: HMW material captured by immobilized Clone 14, detected by aducanumab
[2] = molecular target: AβO in the low molecular weight (LMW) fraction of pooled soluble human AD brain extract (~8 kDa to ~70 kDa) (human) (UniProt P05067); test: sandwich SPR: LMW material captured by immobilized Clone 4, detected by aducanumab
[3] = molecular target: AβO in the low molecular weight (LMW) fraction of pooled soluble human AD brain extract (~8 kDa to ~70 kDa) (human) (UniProt P05067); test: sandwich SPR: LMW material captured by immobilized Clone 14, detected by aducanumab
[4] = molecular target: Aβ aggregates in the high molecular weight (HMW) fraction of pooled soluble human AD brain extract (>70 kDa to ~700 kDa) (human) (UniProt P05067); test: sandwich SPR: HMW material captured by immobilized Clone 5, detected by aducanumab
[5] = molecular target: Aβ aggregates in the high molecular weight (HMW) fraction of pooled soluble human AD brain extract (>70 kDa to ~700 kDa) (human) (UniProt P05067); test: sandwich SPR: HMW material captured by immobilized Clone 4, detected by aducanumab
[6] = molecular target: Aβ aggregates in the high molecular weight (HMW) fraction of pooled soluble human AD brain extract (>70 kDa to ~700 kDa) (human) (UniProt P05067); test: sandwich SPR: HMW material captured by immobilized Parental, detected by aducanumab
[7] = molecular target: AβO in the low molecular weight (LMW) fraction of pooled soluble human AD brain extract (~8 kDa to ~70 kDa) (human) (UniProt P05067); test: sandwich SPR: LMW material captured by immobilized Parental, detected by aducanumab

Bound Ab detection by aducanumab, HMW (BRU) [1]: 5.7 BRU
Bound Ab detection by aducanumab, LMW (BRU) [2]: 7.7 BRU
Bound Ab detection by aducanumab, LMW (BRU) [3]: 4.4 BRU
Bound Ab detection by aducanumab, HMW (BRU) [4]: 1.25 BRU
Bound Ab detection by aducanumab, HMW (BRU) [5]: 10.4 BRU
Bound Ab detection by aducanumab, HMW (BRU) [6]: 8.3 BRU
Bound Ab detection by aducanumab, LMW (BRU) [7]: 5.8 BRU
Substance: Aducanumab (antibody)
